Tests used:
[1] = test system: HeLa Kyoto; experiment: solubility in G1/S (NP-40 vs SDS abundance) (log2 ratio); higher = more soluble; conditions: cell cycle stage: G1/S
[2] = test system: HeLa Kyoto; experiment: melting temperature (median over replicates), in situ; higher = more thermally stable
[3] = test system: HeLa Kyoto; experiment: solubility change mitosis vs G1/S (difference of NP-40 vs SDS log2 ratios) (log2 ratio difference); higher = more soluble in mitosis
[4] = test system: HeLa Kyoto; experiment: thermal stability score vs G1/S (z-score of summed log2 fold changes over temperatures); higher = more thermally stable than in G1/S
[5] = cell cycle stage: early G1 (4.5 h after nocodazole release)
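Throughout, for melting temperature (median over replicates), in situ: HeLa Kyoto cells synchronized by double thymidine or nocodazole block, proteins quantified by TMT10plex mass spectrometry, three independent biological replicates.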
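Throughout, for solubility change mitosis vs G1/S (difference of NP-40 vs SDS log2 ratios): synchronized HeLa Kyoto cells (double thymidine block for G1/S, nocodazole release for mitosis), protein amounts in NP-40 versus SDS lysates quantified by mass spectrometry, three biological replicates.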
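Throughout, for solubility in G1/S (NP-40 vs SDS abundance): HeLa Kyoto cells arrested at G1/S by double thymidine block, proteins quantified by TMT10plex mass spectrometry in mild NP-40 versus SDS extracts, three biological replicates.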
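Throughout, for thermal stability score vs G1/S (z-score of summed log2 fold changes over temperatures): synchronized HeLa Kyoto cells, proteins quantified by TMT10plex mass spectrometry, three biological replicates, mitosis taken 0.5 h after nocodazole release, G1/S directly after double thymidine block.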

Chain of IRF2BP1 (chain, as listed by the source): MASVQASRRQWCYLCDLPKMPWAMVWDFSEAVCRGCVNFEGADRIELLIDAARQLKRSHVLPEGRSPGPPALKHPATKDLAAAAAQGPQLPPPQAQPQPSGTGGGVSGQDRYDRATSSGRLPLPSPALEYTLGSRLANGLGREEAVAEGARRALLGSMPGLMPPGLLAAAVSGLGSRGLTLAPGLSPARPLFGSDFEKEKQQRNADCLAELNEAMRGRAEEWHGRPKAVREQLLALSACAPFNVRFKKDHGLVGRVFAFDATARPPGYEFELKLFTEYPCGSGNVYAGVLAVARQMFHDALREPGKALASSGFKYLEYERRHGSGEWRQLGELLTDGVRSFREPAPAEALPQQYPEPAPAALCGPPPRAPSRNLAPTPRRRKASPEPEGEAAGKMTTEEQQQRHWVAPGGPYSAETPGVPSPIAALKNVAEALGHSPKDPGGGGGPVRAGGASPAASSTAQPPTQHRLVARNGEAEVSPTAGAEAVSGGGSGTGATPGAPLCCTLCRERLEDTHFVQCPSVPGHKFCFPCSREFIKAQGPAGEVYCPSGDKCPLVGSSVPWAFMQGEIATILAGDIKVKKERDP
Chain of LARP4B (chain, as listed by the source): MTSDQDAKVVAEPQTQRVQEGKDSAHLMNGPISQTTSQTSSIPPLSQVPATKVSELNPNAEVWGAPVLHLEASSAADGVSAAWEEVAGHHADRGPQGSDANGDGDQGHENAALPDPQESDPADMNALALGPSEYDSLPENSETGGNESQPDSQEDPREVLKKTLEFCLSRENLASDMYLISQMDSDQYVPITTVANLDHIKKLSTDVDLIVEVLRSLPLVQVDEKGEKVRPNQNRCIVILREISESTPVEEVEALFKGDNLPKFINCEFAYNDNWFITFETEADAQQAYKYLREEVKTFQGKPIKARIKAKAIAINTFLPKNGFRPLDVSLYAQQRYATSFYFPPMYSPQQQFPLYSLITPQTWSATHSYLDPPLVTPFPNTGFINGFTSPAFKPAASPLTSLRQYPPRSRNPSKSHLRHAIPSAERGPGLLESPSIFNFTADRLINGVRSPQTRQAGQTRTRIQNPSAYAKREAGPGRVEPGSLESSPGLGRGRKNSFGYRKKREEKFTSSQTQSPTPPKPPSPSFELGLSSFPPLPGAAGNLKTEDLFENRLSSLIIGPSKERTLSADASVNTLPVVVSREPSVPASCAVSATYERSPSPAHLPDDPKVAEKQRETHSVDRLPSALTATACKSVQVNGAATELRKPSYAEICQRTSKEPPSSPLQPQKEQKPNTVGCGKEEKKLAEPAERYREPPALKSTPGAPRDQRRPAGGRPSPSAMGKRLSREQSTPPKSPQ
Chain of HNRNPAB (chain, as listed by the source): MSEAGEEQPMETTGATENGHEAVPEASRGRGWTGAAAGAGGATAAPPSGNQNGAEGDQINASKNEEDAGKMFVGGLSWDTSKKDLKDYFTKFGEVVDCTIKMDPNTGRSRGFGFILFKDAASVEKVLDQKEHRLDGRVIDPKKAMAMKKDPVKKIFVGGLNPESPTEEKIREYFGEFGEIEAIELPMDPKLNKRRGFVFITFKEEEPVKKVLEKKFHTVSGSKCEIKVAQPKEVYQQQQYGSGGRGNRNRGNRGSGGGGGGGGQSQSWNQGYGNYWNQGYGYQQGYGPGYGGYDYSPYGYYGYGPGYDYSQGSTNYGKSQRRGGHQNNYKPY

HADHA
solubility in G1/S (log2) [1]: 0.196 | melting temperature ([2]; cell cycle stage: G1/S): 50.8 °C | melting temperature ([2]; cell cycle stage: mitosis): 50.9 °C | solubility change mitosis (log2) [3]: -0.133 | thermal stability score [4, 5]: -1.31 | thermal stability score ([4]; cell cycle stage: mitosis): 0.108

HCFC1
solubility in G1/S (log2) [1]: 0.179 | melting temperature ([2]; cell cycle stage: G1/S): 52.5 °C | melting temperature ([2]; cell cycle stage: mitosis): 52.7 °C | solubility change mitosis (log2) [3]: -0.0808 | thermal stability score [4, 5]: -0.303 | thermal stability score ([4]; cell cycle stage: mitosis): 0.00236

HEATR5B
solubility in G1/S (log2) [1]: -0.275 | melting temperature ([2]; cell cycle stage: G1/S): 50.8 °C | melting temperature ([2]; cell cycle stage: mitosis): 52.4 °C | solubility change mitosis (log2) [3]: -0.00901 | thermal stability score [4, 5]: -0.405 | thermal stability score ([4]; cell cycle stage: mitosis): -0.289

HNRNPAB
solubility in G1/S (log2) [1]: 0.308 | melting temperature ([2]; cell cycle stage: G1/S): 55.3 °C | melting temperature ([2]; cell cycle stage: mitosis): 54.4 °C | solubility change mitosis (log2) [3]: 0.251 | thermal stability score [4, 5]: -0.524 | thermal stability score ([4]; cell cycle stage: mitosis): -3.14

INADL
solubility in G1/S (log2) [1]: -0.0157 | melting temperature ([2]; cell cycle stage: G1/S): 47.4 °C | melting temperature ([2]; cell cycle stage: mitosis): 49.2 °C | solubility change mitosis (log2) [3]: -0.068 | thermal stability score [4, 5]: 0.59 | thermal stability score ([4]; cell cycle stage: mitosis): 1.68

IRF2BP1
solubility in G1/S (log2) [1]: 0.316 | melting temperature ([2]; cell cycle stage: G1/S): 46.9 °C | melting temperature ([2]; cell cycle stage: mitosis): 49.5 °C | solubility change mitosis (log2) [3]: -0.0595 | thermal stability score [4, 5]: 1.4 | thermal stability score ([4]; cell cycle stage: mitosis): 3.22

ITPR3
solubility in G1/S (log2) [1]: -0.508 | melting temperature ([2]; cell cycle stage: G1/S): 48.6 °C | melting temperature ([2]; cell cycle stage: mitosis): 50.1 °C | solubility change mitosis (log2) [3]: 0.0432 | thermal stability score [4, 5]: 0.858 | thermal stability score ([4]; cell cycle stage: mitosis): 2.41

KDM3B
solubility in G1/S (log2) [1]: 0.00792 | melting temperature ([2]; cell cycle stage: G1/S): 48.6 °C | melting temperature ([2]; cell cycle stage: mitosis): 49.8 °C | solubility change mitosis (log2) [3]: -0.108 | thermal stability score [4, 5]: 0.937 | thermal stability score ([4]; cell cycle stage: mitosis): 2.62

KDM5C
solubility in G1/S (log2) [1]: -0.0935 | melting temperature ([2]; cell cycle stage: G1/S): 49.3 °C | melting temperature ([2]; cell cycle stage: mitosis): 50 °C | solubility change mitosis (log2) [3]: -0.075 | thermal stability score [4, 5]: 0.484 | thermal stability score ([4]; cell cycle stage: mitosis): 0.572

KIF21A
solubility in G1/S (log2) [1]: -0.0549 | melting temperature ([2]; cell cycle stage: G1/S): 49.5 °C | melting temperature ([2]; cell cycle stage: mitosis): 50.3 °C | solubility change mitosis (log2) [3]: -0.0922 | thermal stability score [4, 5]: -1.01 | thermal stability score ([4]; cell cycle stage: mitosis): 0.181

KNTC1
solubility in G1/S (log2) [1]: -0.33 | melting temperature ([2]; cell cycle stage: G1/S): 49.6 °C | melting temperature ([2]; cell cycle stage: mitosis): 49.4 °C | solubility change mitosis (log2) [3]: -0.188 | thermal stability score [4, 5]: -0.336 | thermal stability score ([4]; cell cycle stage: mitosis): 0.546

LAMC1
solubility in G1/S (log2) [1]: -0.0818 | melting temperature ([2]; cell cycle stage: G1/S): 53.5 °C | melting temperature ([2]; cell cycle stage: mitosis): 53.9 °C | solubility change mitosis (log2) [3]: -0.0329 | thermal stability score [4, 5]: 2.27 | thermal stability score ([4]; cell cycle stage: mitosis): 3.77

LARP4B
solubility in G1/S (log2) [1]: -0.183 | melting temperature ([2]; cell cycle stage: G1/S): 50.8 °C | melting temperature ([2]; cell cycle stage: mitosis): 50 °C | solubility change mitosis (log2) [3]: 0.533 | thermal stability score [4, 5]: -0.656 | thermal stability score ([4]; cell cycle stage: mitosis): -1.1

Source: the supplement of paper PMC5998384
